# Target: full-length wild type MOKV G (MOKV G WT) (Mokola virus) (UniProt P0C572)
# Assay: negative staining electron microscopy
# Sequence of full-length wild type MOKV G (MOKV G WT) (P0C572 20-522): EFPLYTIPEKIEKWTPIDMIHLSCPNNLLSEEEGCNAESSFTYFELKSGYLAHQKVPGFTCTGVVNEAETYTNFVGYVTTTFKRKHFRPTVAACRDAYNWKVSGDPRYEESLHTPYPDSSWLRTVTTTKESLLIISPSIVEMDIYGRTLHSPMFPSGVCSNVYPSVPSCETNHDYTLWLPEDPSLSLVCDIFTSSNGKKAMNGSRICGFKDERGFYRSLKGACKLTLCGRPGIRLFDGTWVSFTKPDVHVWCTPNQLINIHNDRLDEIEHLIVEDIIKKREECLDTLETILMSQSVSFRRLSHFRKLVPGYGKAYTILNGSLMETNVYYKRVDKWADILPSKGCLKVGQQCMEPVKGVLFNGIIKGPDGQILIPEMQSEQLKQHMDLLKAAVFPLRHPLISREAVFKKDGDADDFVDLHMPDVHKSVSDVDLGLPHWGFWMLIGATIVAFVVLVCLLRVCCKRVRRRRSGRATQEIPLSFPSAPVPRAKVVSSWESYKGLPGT
substance,measurement,value
full-length wild type MOKV G (MOKV G WT) (from UniProt P0C572 20-522) (natural protein),stoichiometry N,3

# Source: publication PMC7082061 (PLoS Pathogens, 2020)
